Test results as given in paper PMC3580838.

Assays:
[1] = biological target: GST:CcmC(H60A/H184A) (UniProt P0ABM1); experiment: pull-down
[2] = biological target: GST:CcmC(W^5A/D126A) (UniProt P0ABM1); experiment: pull-down

% CcmE bound with heme [1]: < 4% | % holoCcmE bound with heme [1]: < 3% | % CcmE bound with heme [2]: < 4% | % holoCcmE bound with heme [2]: < 3%
Substance: CcmE (from UniProt P69490 30-159) (natural protein)
